Source: US7732133B2, “Screening methods for biologically active ligands” (Chugai Seiyaku Kabushiki Kaisha, priority 2000, dated 2010)
Each block holds one molecule with its values, some of them ahead of it.

Legend:
[1] = Titer of human EPO and G-CSF prepared from recombinant CHO cells
[2] = molecular target: T1, chimeric G-CSF receptor (human G-CSF receptor extracellular domain / mouse G-CSF receptor) in Ba/F3 cell line GFG (UniProt P40223+Q99062); assay: Growth response of chimeric G-CSF receptor-expressing Ba/F3 cell line GFG (WST-8); format: cell-based; details: 70 hours culture, WST-8 absorbance
T1 construct: the extracellular domain (from the −23rd to the 604th amino acid residues); expressed in transfected cells; host or cells: mouse Ba/F3 cells, clone GFG#342 = GFG
T1 sequence (Q99062+P40223 with tags, fused parts or gaps): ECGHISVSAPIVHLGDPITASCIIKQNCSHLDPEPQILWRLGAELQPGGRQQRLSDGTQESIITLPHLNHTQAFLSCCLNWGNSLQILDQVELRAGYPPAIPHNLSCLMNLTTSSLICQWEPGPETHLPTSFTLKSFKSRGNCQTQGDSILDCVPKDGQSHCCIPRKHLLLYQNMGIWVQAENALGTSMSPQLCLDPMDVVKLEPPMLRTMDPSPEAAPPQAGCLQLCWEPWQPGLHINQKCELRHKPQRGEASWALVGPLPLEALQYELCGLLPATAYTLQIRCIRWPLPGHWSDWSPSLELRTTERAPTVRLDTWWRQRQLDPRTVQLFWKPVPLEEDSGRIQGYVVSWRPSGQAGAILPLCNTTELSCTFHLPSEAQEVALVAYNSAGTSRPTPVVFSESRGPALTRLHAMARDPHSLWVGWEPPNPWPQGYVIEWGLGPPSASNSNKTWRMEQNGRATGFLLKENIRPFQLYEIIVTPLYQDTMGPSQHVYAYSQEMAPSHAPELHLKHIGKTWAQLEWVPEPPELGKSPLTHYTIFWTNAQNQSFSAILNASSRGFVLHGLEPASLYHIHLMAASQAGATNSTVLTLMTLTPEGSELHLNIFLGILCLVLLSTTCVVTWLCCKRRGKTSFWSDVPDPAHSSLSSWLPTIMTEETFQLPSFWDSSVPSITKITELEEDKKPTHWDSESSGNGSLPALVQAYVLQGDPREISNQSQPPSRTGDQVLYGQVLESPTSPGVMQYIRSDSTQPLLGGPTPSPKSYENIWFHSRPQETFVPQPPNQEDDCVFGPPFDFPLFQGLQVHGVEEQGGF
Source text: A chimeric receptor cDNA was constructed by linking cDNA fragments encoding the extracellular domain (from the −23rd to the 604th amino acid residues; Fukunaga, R. et al. (1990) Proc. Natl. Acad. Sci. USA 87, 8702-8706) of human G-CSF receptor, and the transmembrane and intracellular domains (from the 602nd to the 813th amino acid residues; Fukunaga, R. et al. (1990) Cell 61, 341-350) of mouse G-CSF receptor. The cDNA was inserted downstream of the HEF1α promoter of the mammalian expression vector pCOS-G to construct chimeric receptor-expression vector GG/pCOS-G. GG/pCOS-G was linearized with Pvu I (Takara Shuzo), extracted with phenol and chloroform, and purified by ethanol precipitation.
(§1) The linearized expression gene vector was introduced into mouse Ba/F3 cells using an electroporation apparatus (Gene Pulser: Bio Rad). […]
(§2) The cells were washed twice with Media A, and were suspended in Media A to give a cell density of 5×10^4 cells/mL. […] After the culture, 10 μl/well WST-8 reagent (Cell Count Reagent SF; Nacalai Tesque) was added, and pre-reaction absorbance at a measurement wavelength of 450 nm and a control wavelength of 655 nm was measured using microplate reader (Model 3550, Bio Rad). The plate was incubated for two hours in a CO2 incubator (CO2 concentration, 5%), and post-reaction absorbance was measured as above.

[3] = system: mixed culture of cell lines GFG, EPG, TPG and parental Ba/F3; assay: Cytokine responses in mixed and individual cell cultures (Example 2); format: cell-based, mouse; details: mixed culture of four cell lines (each 4×10^3 cells/well), similar in individual cultures, 72 hours, WST-8; listed as hG-CSF
Experimental: Mixed culture of the cell lines GFG, EPG, and TPG, which express human G-CSF, EPO, and TPO chimeric receptors, respectively, and their parental cell line Ba/F3 was conducted and their response to various cytokines was examined.
The cells were washed twice with RPMI1640 media containing 2% fetal bovine serum, and then were suspended in RPMI1640 containing 10% fetal bovine serum. The four cell lines were mixed by adjusting each of the cell lines to 4×10^4 cells/mL (16×10^4 cells/mL in total) for the mixed culture, and, for individual cultures, cells were prepared at 4×10^4 cells/mL. 100 μL each of the cells were independently seeded on a 96-well microtiter plate (flat bottom, Falcon). After adding 100 μL/well each of appropriately diluted cytokines, the cultures were cultured for 72 hours in a CO2 incubator (5% CO2 concentration). After the culture, 10 μL/well WST-8 reagent (Cell Count Reagent SF; Nacalai Tesque) was added, and pre-reaction absorbance at a measurement wavelength of 450 nm and a control wavelength of 655 nm was measured using a microplate reader (Model 3550, Bio Rad). The plate was incubated for two hours in a CO2 incubator (CO2 concentration, 5%), and post-reaction absorbance was measured as above. Data were graphed out taking the cytokine concentrations on the horizontal axis and the amount of changes in absorbance after 2-hour incubation on the vertical axis (FIGS. 18, 19, and 20).

[4] = molecular target: T2, chimeric Flt-3 receptor (human Flt-3 extracellular domain / mouse G-CSF receptor) in Ba/F3 cell line FLG (Homo sapiens, UniProt P36888); assay: Growth response of chimeric Flt-3 receptor-expressing Ba/F3 cell line FLG (WST-8); format: cell-based; details: 74 hours culture, WST-8 absorbance
T2 construct: from the 1st to the 541st amino acid residues; expressed in transfected cells; host or cells: mouse Ba/F3 cells, clone FLG#102 = FLG
Source text: A chimeric receptor cDNA was constructed by linking cDNA fragments encoding the extracellular domain (from the 1st to the 541st amino acid residues; Small, D. et al. (1994) Proc. Natl. Acad. Sci. USA. 91, 459-463) of human Flt-3, and the transmembrane and intracellular domains (from the 602nd to the 813th amino acid residues; Fukunaga, R. et al. (1990) Cell 61, 341-350) of mouse G-CSF receptor. The cDNA was inserted downstream of the EF1α promoter of the mammalian expression vector pCOS2 to construct chimeric receptor-expression vector FLG/pCOS2. The FLG/pCOS2 was linearized with Hpa I (Takara Shuzo), extracted with phenol and chloroform, and purified by ethanol precipitation.
as §1
as §2, with “5%; humidity, 99.9%),” for “5%),”

- concentration at which an evident growth reaction was observed [2]: ≥ 10 pg/mL
B1: granulocyte-colony stimulating factor (protein, UniProt P09919 31-207, looked up)
Granulocyte …: TPLGPASSLPQSFLLKCLEQVRKIQGDGAALQEKLVSECATYKLCHPEELVLLGHSLGIPWAPLSSCPSQALQLAGCLSQLHSGLFLYQGLLQALEGISPELGPTLDTLQLDVADFATTIWQQMEELGMAPALQPTQGAMPAFASAFQRRAGGVLVASHLQSFLEVSYRVLRHLAQP
notes: human G-CSF prepared from recombinant CHO cells
- titer [1]: 1.2×10^8 IU/mg
- concentration where the response was observed to start [3]: 2 pg/mL

- concentration at which an evident growth reaction was observed [4]: ≥ 300 pg/mL
B2: human Flt-3 ligand: human Flt-3 ligand (Genzyme) (protein, UniProt P49771 27-235, looked up)
Fms-related tyrosine kinase 3 …: TQDCSFQHSPISSDFAVKIRELSDYLLQDYPVTVASNLQDEELCGGLWRLVLAQRWMERLKTVAGSKMQGLLERVNTEIHFVTKCAFQPPPSCLRFVQTNISRLLQETSEQLVALKPWITRQNFSRCLELQCQPDSSTLPPPWSPRPLEATAPTAPQPPLLLLLLLPVGLLLLAAAWCLHWQRTRRRTPRPGEQVPPVPSPQDLLLVEH
